Test results reported in patent publication US10184137B2, “Method of producing isoprene monomer” (AJINOMOTO CO., INC., priority 2014, dated 2019).
Values joined by “and” are separate entries in the source; they are usually repeats but may differ in a detail not shown here. Identical values can stand only once. One block for each molecule: values may come before it.

Tests used:
Assay type in all cases: biochemical
mevalonate kinase [1] = assay: Examination of product inhibition on each mevalonate kinase (absorbance at 386 nm, PMK addition); conditions: 1 mM mevalonate as substrate; in words
Method: When decrease in absorbance stopped, purified PMK was added to measure further decrease in absorbance at 386 nm.
FIG. 18 presents the SDS-PAGE profile of the purified PMK. […] Then, absorbance decreased further and finally absorbance at 386 nm decreased to 0.3 in all reaction systems. Therefore, it is inferred that mevalonate is converted into diphosphomevalonate via phosphomevalonate by adding PMK to each MVK.

mevalonate kinase [2] = assay: Expression analysis and activity confirmation of His-tagged mevalonate kinases from pET-21a(+) and pET-28b(+); conditions: His-spinTrap eluate after dialysis, 10 μl enzyme solution
Method: Each obtained plasmid was used for transformation of E. coli BL21(DE3). […] When OD600 reached approximately 0.5, IPTG was added to the solution to final concentration of 1 mM. It was then cultured overnight at 20° C. Harvested cells were suspended in the buffer solution consisting of 50 mM sodium phosphate, 0.3 M NaCl and 20 mM Imidazol. Then the cells were disrupted with an ultrasonic disruptor (TOMY: UD-201, output level=3.5). After centrifugation (20,000×g, 20 min), disrupted cells were adsorbed to His-spinTrap (GE Healthcare). After washing with the same buffer solution, protein was eluted with the buffer solution consisting of 50 mM sodium phosphate, 0.3 M NaCl and 0.5 M imidazole (pH7.5). Eluate was dialyzed overnight at 4° C. with the external solution composed of 20 mM Tris-HCl (pH7.5) and 50 mM NaCl. Then, enzyme activity of each eluate in the internal dialysis solution was measured.
Activity of the internal dialysate (about 0.2 ml each) was measured with the 10 μl of enzyme solution (Table 8). Enzyme expression level was compared on activity basis between pET-21a(+) and pET-28b(+). […] It is inferred that expression level is higher in pET-28b(+). Therefore, purified enzyme expressed in pET-28b(+) was used in the further examinations.
Values were presented by decrease in absorbance per unit time per 10 μl in the enzyme reaction measurement system (dABS/min/10 μl).
(§1) Decrease in absorbance at 340 nm at 30° C. was measured to determine the enzyme activity. JASCO Corporation's spectrophotometer (V-650) was used in this study. Millimolar extinction coefficient of NADH used in this study was 6.22 mM^−1 cm^−1. […] Km value was calculated by Lineweaver-Burk plot.

mevalonate kinase [3] = assay: Measurement of activity and Km value of purified mevalonate kinase (PK/LDH coupled, 340 nm); conditions: for dABS/min at mev 0.01 mM: potassium mevalonate 0.01 mM; for dABS/min at ATP 5 mM / dABS/min at mev 0.01 mM / dABS/min at mev 0.04 mM / dABS/min at mev 0.2 mM: ATP 5 mM; for dABS/min at mev 0.04 mM: potassium mevalonate 0.04 mM; for dABS/min at mev 0.2 mM: potassium mevalonate 0.2 mM
Method: Each obtained plasmid was used for transformation of E. coli BL21(DE3). […] When OD600 reached approximately 0.5, 0.1 mM IPTG (for cva, mma, nmr, and sce) or 1 mM (for mcl and mpd) of IPTG was added, and then the mixture was kept at 20° C. overnight to induce the target protein. Harvested cells were suspended in buffer solution A (50 mM sodium phosphate, 0.3 M NaCl and 20 mM Imidazol), and then the cells were disrupted with an ultrasonic disruptor (TOMY: UD-201). […] After centrifugation (28,000×g, 30 min), the supernatant was adsorbed onto His-Trap HP (GE Healthcare) to elute the target protein by linear concentration gradient of Imidazol (final concentration 0.5 M). Obtained protein was dialyzed by using an external solution composed of 20 mM Tris-HCl (pH 8.0) containing 1 mM DTT and 50 mM NaCl. Dialyzed protein was designated as purified enzyme. Protein quantity was measured with Bio-RAD protein assay kit and BSA standard condition.
as §1
Measured activity of each enzyme (JABS/min) was presented on Table 9 for the calculation of apparent Km value (Km app.) of each enzyme. Table 10 presents Km app., Vmax, molecular weight of the enzyme protein, protein concentration in the enzyme solution and calculated kcat.
Activity was indicated by dABS/min when 10 μl of each enzyme was added to 1 ml of reaction solution.

mevalonate kinase [4] = assay: Inhibition of each mevalonate kinase by DMAPP, GPP, FPP or DPM
Method: Since GPP and FPP solutions contain methanol, methanol which was needed to keep the same methanol level at the addition to the reaction system was added to the reaction solution, which was designated as control.
Respective effect of the added 5 mM DMAPP, 0.1 mM GPP, and 0.1 mM FPP on the activity of each enzyme was measured. […] Contrarily, mcl-derived enzyme was activated by 5 mM DMAPP and its activity increased by 20% from that of the control.
Activity when 10 μl of each enzyme was added to 1 ml of the reaction system was represented by dABS/min
Effect of 1 mM diphosphomevalonate (DPM) on each enzyme was also studied.

[5] = potassium mevalonate 5 mM, 10 μl enzyme in 1 ml, replicate values
[6] = 10 μl enzyme in 1 ml, replicate values
[7] = Table 11 control without terpenyl diphosphate (methanol added)

course of decrease in absorbance at 386 nm until PMK addition (mevalonate kinase [1]): almost linear decrease in absorbance
dABS/min at mev 0.2 mM (mevalonate kinase [3]; [6]): 0.1506 dABS/min (2×) and 0.1505 dABS/min
B1: mpd: mevalonate kinase derived from Methanocella paludicola (SEQ ID NO:1), His-tagged purified enzyme (protein, listed as Methanocella paludicola)
chain: MTMCSAPGKVFLFGEHAVVYGKRAIACAIDLRTTVEVSRKSRGVHIHSAFKDEPDKNLYIKTAVKRMQKCADIRNVNIAVSSRIPVASGLGSSAAVTVATIGALNEEFSAGLSKKDIAYMAYQTELEVQGAASPTDTFVSTMGGTVVVPDMRTLPPITCGIVVGHTGISKSTSRMVSRVRTLKEKYPDVIDGIMDSIGDISARGEDLIKQNDYRSIGELMNVNQGLLDALGITIPELSLQIYAARQHGAYGAKITGAGGGGCMVAICDDKNCKEIATAIGRSYGDSFISKPTAEGIFIQ
modifications: His-tag
enzyme activity, pET21 system (C terminal Tag) (mevalonate kinase [2]): 0.011 dABS/min/10 μl
enzyme activity, pET28 system (N terminal Tag) (mevalonate kinase [2]): 0.031 dABS/min/10 μl
dABS/min at ATP 0.04 mM (mevalonate kinase [3]; ATP 0.04 mM, potassium mevalonate 5 mM, 10 μl enzyme in 1 ml, replicate values): 0.01369 dABS/min and 0.01352 dABS/min and 0.01403 dABS/min
dABS/min at ATP 0.2 mM (mevalonate kinase [3]; [5]): 0.03262 dABS/min and 0.03252 dABS/min and 0.0325 dABS/min
dABS/min at ATP 1 mM (mevalonate kinase [3]; [5]): 0.04713 dABS/min and 0.04701 dABS/min and 0.04689 dABS/min
dABS/min at ATP 5 mM (mevalonate kinase [3]; [5]): 0.05141 dABS/min (2×) and 0.05155 dABS/min
affinity to mevalonate and ATP compared with the other enzymes (mevalonate kinase [3]; in words): higher affinity to mevalonate and ATP than the other enzymes
dABS/min at mev 0.01 mM (mevalonate kinase [3]; [6]): 0.06401 dABS/min and 0.0638 dABS/min and 0.06377 dABS/min
dABS/min at mev 0.04 mM (mevalonate kinase [3]; [6]): 0.1211 dABS/min and 0.1213 dABS/min and 0.121 dABS/min
enzyme activity, Control (mevalonate kinase [4]; [7]): 0.1573 dABS/min
enzyme activity, Control (mevalonate kinase [4]; Table 12 control without DPM): 0.148 dABS/min

course of decrease in absorbance at 386 nm until PMK addition (mevalonate kinase [1]): almost linear decrease in absorbance
B2: cva: mevalonate kinase derived from Corynebacterium variabile (SEQ ID NO:3), His-tagged purified enzyme (protein)
chain: MAPHVGHGQTVAKIILFGEHSVVYGHPAIAMPLRTLRMIARVEPTDGPGTLSGLGWTGPITEAPARFSSIVKAAEVASDFAGHPGAGLNISTESEFPPERGLGSSAAAAGAVIRAVLDAFDTPATPRELFDLTQEAETVAHGRPSGLDAVATSAEAPVHFQAGQATDLEFSPDAWIVIADSGVEGSTRETVGHVRGRFEAEPDIITALLNRLGEITDEVVVDLRTGDVQGMGARMTEAHGILGQLGVSNTQLDALVTASLGAGALGAKLTGGGRGGCVIALAATEEDAENVEKALVDAGARGTWVHAPATGQMAGEVMQ
modifications: His-tag; Corynebacterium variabile
enzyme activity, pET21 system (C terminal Tag) (mevalonate kinase [2]): 0.019 dABS/min/10 μl
enzyme activity, pET28 system (N terminal Tag) (mevalonate kinase [2]): 0.211 dABS/min/10 μl
dABS/min at ATP 0.2 mM (mevalonate kinase [3]; [5]): 0.005822 dABS/min and 0.005967 dABS/min and 0.005722 dABS/min
dABS/min at ATP 1 mM (mevalonate kinase [3]; [5]): 0.02063 dABS/min and 0.02015 dABS/min and 0.02051 dABS/min
dABS/min at ATP 5 mM (mevalonate kinase [3]; [5]): 0.03739 dABS/min and 0.03744 dABS/min and 0.03741 dABS/min
dABS/min at mev 0.01 mM (mevalonate kinase [3]; [6]): 0.01264 dABS/min and 0.01267 dABS/min and 0.01265 dABS/min
dABS/min at mev 0.04 mM (mevalonate kinase [3]; [6]): 0.03701 dABS/min and 0.03703 dABS/min and 0.03697 dABS/min
dABS/min at mev 0.2 mM (mevalonate kinase [3]; [6]): 0.0771 dABS/min and 0.07712 dABS/min and 0.07711 dABS/min
enzyme activity, Control (mevalonate kinase [4]; [7]): 0.08338 dABS/min
enzyme activity, Control (mevalonate kinase [4]; Table 12 control without DPM): 0.07328 dABS/min
